We go through one molecule from patent US9512212 (ARIZONA BOARD OF REGENTS A BODY CORPORATE OF THE STATE OF …, dated 2016).

The target of assay [1] is T1, β-amyloid (Aβ) (UniProt P05067 672-711, limits assumed).
T1 construct: Aβ is a fragment of it; also called beta amyloid; Ab40
In words: not stated (standard affinity maturation).

Assay [2] has as its target T1, β-amyloid (Aβ). In words: not stated (clone from standard affinity maturation of H1).

T1 sequence (P05067 672-711 limits assumed): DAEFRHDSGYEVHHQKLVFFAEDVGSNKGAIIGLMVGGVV

B1: H1v2 anti-Ab40 scFv (scFv)
scFv: MAEVQLVESGGGVVRPGGSLRLSCAASGFTFDDYGMSWVRQAPGKGLEWVSGINWNGGSTGYADSVKGRFTISRDNAKNSLYLQMNSLRAEDTAVYYCARRRYALDYWGQGTLVTVSRGGGGSGGGGSGGGGSSELTQDPAVSVALGQTVRITCQGDSLRSYYASWYQQKPGQAPVLVIYGKNNRPSGIPDRFSGSSSGNTASLTITGAQAEDEADYYCNSRDSSGNHVVFGGGTKLTVLG
notes: also called H1v2 clone
For orientation: Kd means the equilibrium constant for the complex coming apart. In the case of B1, in the assay with β-amyloid (Aβ) [1], the “fold increase in affinity over the parent H1 scFv” value is about 5 fold. Also, the Kd with β-amyloid (Aβ) [2] was 247 nM.
